# How the values were obtained:
# [1] = test system: Succinyl-βALPF-doxorubicin
# [2] = test system: N-succinyl-beta-alanyl-L-leucyl-L-alanyl-L-leucyl-doxorubicin
substance,measurement,setting,value
"TOP (recombinant human thimet oligopeptidase, R&D systems, Ref 3439-ZN)",cleavage by purified TOP 5 nM (grade),[1],-
same,cleavage by purified TOP 5 nM (grade; * = less than 5% of metabolites detected),PhAc-ALAF-doxorubicin,-*
same,cleavage by purified TOP 5 nM (grade),[2],+
same,cleavage by purified TOP 5 nM (grade),LGP-Dox,-
same,cleavage by purified TOP 5 nM (grade),PhAc-TSGP-doxorubicin,+
same,cleavage by purified TOP 5 nM (grade),PhAc-GPGP-doxorubicin,-
same,cleavage by purified TOP 5 nM (grade; * = less than 5% of metabolites detected),PhAc-AIGP-doxorubicin,-*
same,cleavage by purified TOP 5 nM (grade),PhAc-KLGP-doxorubicin,+
same,cleavage by purified TOP 5 nM (grade),PhAc-DLGP-doxorubicin,-
same,cleavage by purified TOP 5 nM (grade; * = less than 5% of metabolites detected),PhAc-ALPF-doxorubicin,-*
same,cleavage by purified TOP 5 nM (grade),PhAc-ALAL-doxorubicin,+
same,cleavage by purified TOP 5 nM (grade),PhAc-ALGP-doxorubicin,+

# Reference: patent publication US20160058880
